According to publication PMC7749166 (Communications Biology, 2020):

Tests used:
C5aR2 = conditions: cited from earlier work
Source text: Our mechanistic insights into the C5a binding process to C5aR could offer a new framework to a better understanding or the intriguing functional divergence between the two C5a receptors and could potentially allow delinea ...

C5aR^D282A = target: T1, C5aR^D282A (Homo sapiens, UniProt P21730, D282A); assay: FD-/FV-based AFM dynamic force spectroscopy vs D282A mutant; format: binding
T1 construct: Flag (N); His8 (C); made in house; host or cells: HEK-293S cells (BacMam baculovirus)
T1 sequence (P21730 1-350 D282A): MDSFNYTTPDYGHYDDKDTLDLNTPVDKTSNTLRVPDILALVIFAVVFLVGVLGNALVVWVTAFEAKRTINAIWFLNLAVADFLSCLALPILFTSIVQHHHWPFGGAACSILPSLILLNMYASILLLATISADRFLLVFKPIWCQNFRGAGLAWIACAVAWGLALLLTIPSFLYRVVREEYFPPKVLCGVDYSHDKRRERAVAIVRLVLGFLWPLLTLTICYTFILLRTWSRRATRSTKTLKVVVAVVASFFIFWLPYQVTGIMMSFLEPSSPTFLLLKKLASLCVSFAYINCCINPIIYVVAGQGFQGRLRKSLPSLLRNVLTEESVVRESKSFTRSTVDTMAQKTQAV
Method: The reconstituted C5aR sample solution (either wt-C5aR or mutants) was 20-fold diluted in fusion buffer solution (20 mM HEPES, 300 mM NaCl, and 25 mM MgCl2) and adsorbed on freshly cleaved mica for 15 min. After rinsing with imaging buffer (20 mM HEPES and 300 mM NaCl) the sample was transferred to the AFM.
Rectangular Si3N4 AFM cantilevers with silicon tips (BioLever mini, Bruker) were first cleaned with chloroform for 10 min, rinsed with ethanol, N2 dried, and then cleaned for 15 min in an ultraviolet radiation and ozone cleaner (UV-O, Jetlight, CA, USA). For the aminofunctionalization, the cantilevers were immersed in an ethanolamine solution (3.3 g ethanolamine in 6.6 ml DMSO) overnight and then rinsed in DMSO (3 × 1 min) and ethanol (3 × 1 min), followed by N2 drying. This was followed by the N-hydroxysuccinimide (NHS)-PEG27-acetal linker attachment. A 1 mg portion of the NHS-PEG27-acetal linker (JKU, Linz, Austria) was diluted in 0.5 ml chloroform with 30 µl triethylamine and the cantilevers were immersed in this solution for 2 h. After three rinsing steps of 10 min in chloroform and N2 drying, the cantilevers were immersed in a 1% citric acid solution for 10 min, rinsed with pure water (3 × 5 min), and dried with N2 once more. tris-NTA-derivatized AFM cantilevers were obtained by pipetting 100 µl of a 100 µM tris-N-nitrilotriacetic amine trifluoroacetate (Toronto Research Chemicals, Canada) (tris-NTA) solution onto the cantilevers, followed by the addition of 2 μl of a freshly prepared 1 M NaCNBH3 solution. The cantilevers were incubated for 1 h, then 5 μl of a 1 M ethanolamine solution pH 8.0 was added for 10 min to quench the reaction. tris-NTA cantilevers were further used to obtain C5a-derivatized tips. For this purpose, 100 μl of a 1 μM C5a protein solution was premixed with 5 μl NiCl2 5 mM and the mixture was pipetted onto the tris-NTA cantilevers. After 2 h of incubation time, the cantilevers were washed in HEPES buffer 3 × 5 min.
(JKU, Linz, Austria) dissolved in 0.5 ml of chloroform with 30 μl of triethylamine, then washed with chloroform and dried with N2. […] After 3 h of reaction, cantilevers were washed with PBS 3 × 5 min.
AFM experiments were performed with a Multimode 8 AFM equipped with a Nanoscope V controller (Bruker, Santa Barbara, CA, USA) operated in “PeakForce Tapping QNM mode”. All measurements were carried out in imaging buffer at room temperature (≈24 °C). […]
In FD-based AFM measurements, the AFM cantilever is oscillated in a sinusoidal manner well below its resonance frequency, while the sample surface is contoured pixel-by-pixel. For each approach–retraction cycle of the oscillating cantilever, a force–distance curve is recorded. […] Adhesion maps were recorded using a scan rate of 0.2 Hz and 256 × 256 pixels. […]

[1] = FNdY fit, ± s.e.m., ligand-derivatized AFM tip, 20 mM HEPES, 300 mM NaCl, ≈24 °C

B1: C5a: C5a, a large 74-amino acid glycoprotein; endogenous ligand of C5aR (His6-tag at N-terminal end for AFM tips) (protein)
chain: TLQKKIEEIAAKYKHSVVKKCCYDGACVNNDETCEQRAARISLGPRCIKAFTECCVVASQLRANISHKDMQLGR
modifications: left off: His6, N-terminal, kept
C5a binding to C5aR2 upon mutation of three N-terminal tyrosine residues (C5aR2): did not significantly change C5a binding to C5aR2 | G-protein coupling at C5aR2 (C5aR2): without any detectable G-protein coupling | β arrestins (βarr) recruitment at C5aR2 (C5aR2): robust β arrestins (βarr) recruitment | drop of the ΔGbu vs wild type (C5aR^D282A; AFM, D282A vs WT): four | binding equilibrium free energy ΔGbu (C5aR^D282A; [1]): -3.4 ± 0.7 kcal/mol | equilibrium force Feq (C5aR^D282A; [1]): 27 ± 3 pN | residence time τ0.5 (C5aR^D282A; FNdY fit, ligand-derivatized AFM tip, 20 mM HEPES, 300 mM NaCl, ≈24 °C): 0.08 ms
